This is an account of results in patent US20190375799A1 (Affibody, published 2019).

Assay [1] deals with T1, human serum albumin (human, UniProt P02768 25-609).
T1 construct: In the purification steps HSA-Sepharose (GE Healthcare) was used instead of ALBUCULT; also called HSA; ALBUCULT (Novozymes)
Kind of assay: SPR, Biacore 2000, HSA immobilised. (In general: Surface plasmon resonance follows binding to a sensor surface in real time, without labels.)

In assay [2] the target is T2, albumin from dog (dog, UniProt P49822 25-608).
T2 construct: also called DSA
The assay is described as follows: SPR (Biacore 2000): dog albumin immobilised to 1053 RU, PEP08296 injected at 40 nM for 5 min, then HBS-EP. How it is done:
(§1) The albumin binding polypeptides were injected at a constant flow-rate of 50 μl/min for 5 minutes, followed by injection of HBS-EP for 60 minutes. The surfaces were regenerated with one injection of 25 μl HCl, 10 mM. All samples were run in duplicates.
(§2) After subtraction of reference surface and buffer injection, curves were fitted to a 1:1 (Langmuir) binding model using BIAevaluation software with correction for mass transfer and with RUmax set as a local parameter.

Assay [3] has as its target T3, albumin from mouse (mouse, UniProt P07724 25-608).
T3 construct: also called MSA
The assay is described as follows: SPR (Biacore 2000): mouse albumin immobilised to 858 RU, PEP08296 injected at 40 nM for 5 min, then HBS-EP. How it is done: as §1, §2

Assay [4] addresses T1, human serum albumin. The assay is described as follows: SPR (Biacore 2000): human albumin immobilised to 1130 RU, PEP08296 injected at 40 nM for 5 min, then HBS-EP. The method, then:
as §1, §2

For assay [5], the target named is T4, albumin from rat (rat, UniProt P02770 25-608).
T4 construct: also called RSA
The assay is described as follows: SPR (Biacore 2000): rat albumin immobilised to 831 RU, PEP08296 injected at 40 nM for 5 min, then HBS-EP. The method, then: as §1, §2

The target in assay [6] is T5, albumin from cynomolgus monkey (cynomolgus monkey, UniProt A2V9Z4 25-608).
T5 construct: also called CSA
Kind of assay: SPR (Biacore 2000): cynomolgus albumin immobilised to 1046 RU, PEP08296 injected at 40 nM for 5 min, then HBS-EP. The method, then: as §1, §2

The target of assay [7] is T5, albumin from cynomolgus monkey. Kind of assay: SPR (Biacore 2000): cynomolgus albumin immobilised to 1046 RU, PEP07986 injected at 40 nM for 5 min, then HBS-EP. The method, then: as §1, §2
For assay [8] the target is unchanged. Kind of assay: SPR (Biacore 2000): cynomolgus albumin immobilised to 1046 RU, PEP06923 injected at 40 nM for 5 min, then HBS-EP. The method, then: as §1, §2
In assay [9] the target is T2, albumin from dog. Kind of assay: SPR (Biacore 2000): dog albumin immobilised to 1053 RU, PEP06923 injected at 40 nM for 5 min, then HBS-EP. How it is done: as §1, §2
Assay [10] has as its target T3, albumin from mouse. Kind of assay: SPR (Biacore 2000): mouse albumin immobilised to 858 RU, PEP06923 injected at 40 nM for 5 min, then HBS-EP. The method, then: as §1, §2
The target of assay [11] is T4, albumin from rat. The assay is described as follows: SPR (Biacore 2000): rat albumin immobilised to 831 RU, PEP06923 injected at 40 nM for 5 min, then HBS-EP. The method, then: as §1, §2

Where no end group is shown, it is not given here. The star is where a group is joined. Mal‑DOTA = maleimido-mono-amide-DOTA, O=C(O)CN1CCN(CC(=O)O)CCN(CC(=O)NCCN2C(=O)CC(*)C2=O)CCN(CC(=O)O)CC1; maleimide‑DOTA = maleimide-DOTA

T5 sequence (A2V9Z4 25-608 limits assumed): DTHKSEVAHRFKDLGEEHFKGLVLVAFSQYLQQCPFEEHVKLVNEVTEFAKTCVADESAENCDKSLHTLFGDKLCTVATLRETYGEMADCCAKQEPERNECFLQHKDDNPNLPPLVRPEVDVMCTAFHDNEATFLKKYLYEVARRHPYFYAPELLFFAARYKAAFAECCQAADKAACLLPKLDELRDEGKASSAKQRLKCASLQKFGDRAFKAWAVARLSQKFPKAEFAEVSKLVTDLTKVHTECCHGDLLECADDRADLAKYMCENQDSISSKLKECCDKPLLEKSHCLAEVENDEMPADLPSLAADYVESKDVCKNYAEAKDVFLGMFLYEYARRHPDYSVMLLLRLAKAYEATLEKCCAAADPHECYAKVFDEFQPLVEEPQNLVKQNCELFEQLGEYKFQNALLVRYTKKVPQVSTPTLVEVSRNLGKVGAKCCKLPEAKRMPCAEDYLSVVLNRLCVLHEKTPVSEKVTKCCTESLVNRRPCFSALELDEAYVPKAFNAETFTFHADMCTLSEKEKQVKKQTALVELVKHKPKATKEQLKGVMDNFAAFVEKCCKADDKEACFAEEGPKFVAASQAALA
T2 sequence (P49822 25-608 limits assumed): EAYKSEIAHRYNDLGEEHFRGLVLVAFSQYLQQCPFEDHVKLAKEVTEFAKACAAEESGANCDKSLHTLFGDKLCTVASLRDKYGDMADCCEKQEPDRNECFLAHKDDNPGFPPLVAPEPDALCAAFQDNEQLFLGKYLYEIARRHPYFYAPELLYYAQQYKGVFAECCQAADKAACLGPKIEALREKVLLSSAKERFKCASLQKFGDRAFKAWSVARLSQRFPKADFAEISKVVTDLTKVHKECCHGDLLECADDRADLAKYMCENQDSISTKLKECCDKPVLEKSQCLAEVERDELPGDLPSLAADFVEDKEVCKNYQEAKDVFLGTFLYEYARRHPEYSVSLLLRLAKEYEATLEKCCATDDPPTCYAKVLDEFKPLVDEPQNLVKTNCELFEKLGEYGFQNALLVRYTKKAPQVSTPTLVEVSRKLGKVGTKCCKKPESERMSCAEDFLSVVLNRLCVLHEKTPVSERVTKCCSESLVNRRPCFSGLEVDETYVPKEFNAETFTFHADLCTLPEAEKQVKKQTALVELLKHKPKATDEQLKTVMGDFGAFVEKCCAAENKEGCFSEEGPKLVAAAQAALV
T4 sequence (P02770 25-608 limits assumed): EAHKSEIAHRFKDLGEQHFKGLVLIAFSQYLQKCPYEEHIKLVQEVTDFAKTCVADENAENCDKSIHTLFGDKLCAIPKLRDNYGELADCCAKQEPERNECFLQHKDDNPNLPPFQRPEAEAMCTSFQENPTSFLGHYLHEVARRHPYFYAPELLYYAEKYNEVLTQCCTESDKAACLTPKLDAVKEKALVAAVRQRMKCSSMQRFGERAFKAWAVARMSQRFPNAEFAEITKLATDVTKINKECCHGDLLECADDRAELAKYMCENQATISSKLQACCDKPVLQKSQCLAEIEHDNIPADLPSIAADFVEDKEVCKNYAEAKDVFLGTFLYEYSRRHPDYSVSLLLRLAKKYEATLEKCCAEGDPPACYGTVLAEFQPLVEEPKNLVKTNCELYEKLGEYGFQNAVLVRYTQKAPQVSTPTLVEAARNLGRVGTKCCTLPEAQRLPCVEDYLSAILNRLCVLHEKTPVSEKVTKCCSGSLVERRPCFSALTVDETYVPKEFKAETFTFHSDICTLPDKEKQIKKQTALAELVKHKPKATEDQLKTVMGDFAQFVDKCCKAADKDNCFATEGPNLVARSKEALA
T3 sequence (P07724 25-608 limits assumed): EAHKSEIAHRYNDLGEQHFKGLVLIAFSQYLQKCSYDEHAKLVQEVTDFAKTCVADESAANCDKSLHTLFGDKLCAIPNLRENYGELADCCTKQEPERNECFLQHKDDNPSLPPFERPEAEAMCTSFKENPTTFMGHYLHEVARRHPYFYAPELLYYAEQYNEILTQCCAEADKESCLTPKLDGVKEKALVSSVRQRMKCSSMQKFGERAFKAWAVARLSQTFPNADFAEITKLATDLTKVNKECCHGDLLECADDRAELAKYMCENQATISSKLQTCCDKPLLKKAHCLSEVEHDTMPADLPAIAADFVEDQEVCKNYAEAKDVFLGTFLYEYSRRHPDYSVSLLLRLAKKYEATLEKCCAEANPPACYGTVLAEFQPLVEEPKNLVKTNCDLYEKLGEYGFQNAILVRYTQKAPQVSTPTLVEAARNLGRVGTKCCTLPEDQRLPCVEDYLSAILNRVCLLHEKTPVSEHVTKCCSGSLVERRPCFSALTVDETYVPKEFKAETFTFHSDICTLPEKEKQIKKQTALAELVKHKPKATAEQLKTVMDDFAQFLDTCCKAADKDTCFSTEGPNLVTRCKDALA

B1: PEP07975 (designed binder)
chain: ALASAKEAANAELDC(maleimide‑DOTA)YGVSDFYKRLIDKAKTVEGVEALKDAILAALP-NH2
notes: Made by solid phase peptide synthesis; also called DOTA-conjugated PEP07834; maleimide-DOTA-conjugated PEP07834-amide
Turning to B1, the binding result with human serum albumin [1] was “binds”.
GSLAEAKEAANAELDC(Mal‑DOTA)YGVSDFYKRLIDKAKTVEGVEALKDAILAALPG (designed binder, also called DOTA-conjugated PEP08185) [PEP08296]: the binding result (with albumin from dog [2]; with albumin from mouse [3]; with human serum albumin [4]; with albumin from rat [5]; in assay [6]) was “binds” throughout.
As for GSLAEAKEAANAELDSYGVSDFYKRLIDKAKTVEGVEALKDAILAALP (designed binder) [PEP07986], the binding result in [7] is “binds”.

B2: PEP06923 (designed binder)
chain: GSSLAEAKVLANRELDKYGVSDFYKRLINKAKTVEGVEALKLHILAALP
notes: Expressed as MGSS-[PP###]; also called non-inventive polypeptide
Regarding B2, the binding result (in assay [8]; in the assay with albumin from dog [9]; with albumin from mouse [10]; with albumin from rat [11]) was “binds” each time.
